Publication PMC10403523
pKd, pKi: −log10 of the molar value.

Columns and labels:
[1] = test system: yeast SWI/SNF complex, Snf2 delta-AT (Saccharomyces cerevisiae); assay: EMSA; details: apparent KD, Kd EMSA: 6.7 nM DNA or nucleosome, 1.3-23 nM SWI/SNF, 4% native PAGE (79:1), Methods: prebinding 30 C, 15 min, gel in 0.5x TBE, binding buffer, salt and pH not …
[2] = test system: yeast SWI/SNF complex, Snf2 delta-AT (Saccharomyces cerevisiae); assay: competition; details: EMSA competition against 601 DNA; Kd EMSA: 6.7 nM DNA or nucleosome, 1.3-23 nM SWI/SNF, 4% native PAGE (79:1); Methods: prebinding 30 C, 15 min, gel in 0.5x …; binding buffer, salt and pH not

## 29N59 nucleosome
[1]; 6.7 nM nucleosome, recombinant Xenopus laevis histone octamer
  pKd: 7.69

## 235 bp 601 DNA
[1]; 6.7 nM DNA
  pKd: 7.89

## pUC19 plasmid
[2]
  pKi: 7.60
